Results on 91 sequences are retold here after the supplement of paper PMC9112550, “Optimization of the antimicrobial peptide Bac7 by deep mutational scanning” (BMC Biology, 2022).

This data set relates to Escherichia coli TOP10. Kind of data set: shrunken log2 fold change of peptide-encoding DNA abundance (4.5 h post-induction vs induction); higher = less antimicrobial activity (less host growth inhibition). The conditions noted are these: time post-induction: 4.5 h; library: site-saturation at positions 5, 18, 19, 20.
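Also: peptides expressed intracellularly from a pBAD plasmid library in pooled LB shake-flask culture, induced with 0.3% L-arabinose, DNA abundance read by NGS, three biological replicates, DESeq2 with apeglm shrinkage.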

With RRIRNRPPRLPRPRPRPRMSPRP, the “shrunken log2 fold change” value was -0.238.
As to RRIRNRPPRLPRPRPRPIATPRP, the “shrunken log2 fold change” value is -0.0576.
As to RRIRRRPPRLPRPRPRPWWLPRP, the “shrunken log2 fold change” value is -0.00877.
Next, RRIRERPPRLPRPRPRPPVAPRP: 0.658.
To RRIRQRPPRLPRPRPRPEKRPRP belongs 0.00771; to RRIRPRPPRLPRPRPRPFDFPRP, -0.206.
Next, RRIRHRPPRLPRPRPRPMANPRP: -0.0536.
RRIRMRPPRLPRPRPRPYNQPRP: the “shrunken log2 fold change” value is -0.486.
Next, RRIRNRPPRLPRPRPRPGVQPRP: 0.444; RRIRMRPPRLPRPRPRPFYRPRP: -0.0105.
Next, RRIRCRPPRLPRPRPRPGCHPRP: -0.00885; RRIRMRPPRLPRPRPRPLHRPRP: 0.304; RRIRYRPPRLPRPRPRPRTKPRP: 0.011.
To RRIRMRPPRLPRPRPRPYMAPRP belongs -0.162; to RRIRPRPPRLPRPRPRPLPRPRP, 0.443.
For the sequence RRIRLRPPRLPRPRPRPVKRPRP, the “shrunken log2 fold change” value is 0.0647.
Next, RRIRARPPRLPRPRPRPTGQPRP: 0.65; RRIRNRPPRLPRPRPRPNMNPRP: -0.265; RRIRWRPPRLPRPRPRPCAVPRP: 0.198.
To RRIRSRPPRLPRPRPRPYQAPRP belongs -0.0507.
Next, RRIRRRPPRLPRPRPRPDCEPRP: 0.363.
For RRIRVRPPRLPRPRPRPWAGPRP, the “shrunken log2 fold change” value worked out at 0.116.
Regarding RRIRPRPPRLPRPRPRPQGGPRP, the “shrunken log2 fold change” value stood at 0.332.
Next, RRIRVRPPRLPRPRPRPKNDPRP: 0.011.
To RRIRLRPPRLPRPRPRPPHDPRP belongs 0.397.
To RRIRARPPRLPRPRPRPDFCPRP belongs 0.168; to RRIRVRPPRLPRPRPRPIIMPRP, 0.0741.
On to RRIRSRPPRLPRPRPRPIWVPRP, for which the “shrunken log2 fold change” value came to 0.0576.
Next, RRIRNRPPRLPRPRPRPRTIPRP: -0.221.
Regarding RRIRWRPPRLPRPRPRPVLGPRP, the “shrunken log2 fold change” value worked out at 0.241.
To RRIRMRPPRLPRPRPRPHFSPRP belongs -0.194.
Next, RRIRDRPPRLPRPRPRPTLVPRP: 0.196; RRIRFRPPRLPRPRPRPIIAPRP: -0.413; RRIRGRPPRLPRPRPRPEDSPRP: 1.39.
Next, RRIRPRPPRLPRPRPRPMIRPRP: 0.339; RRIRGRPPRLPRPRPRPPLDPRP: 0.989.
RRIRWRPPRLPRPRPRPIVRPRP: the “shrunken log2 fold change” value is 0.326.
Next, RRIRTRPPRLPRPRPRPNSMPRP: -0.496; RRIRQRPPRLPRPRPRPATAPRP: 0.115; RRIRWRPPRLPRPRPRPNQSPRP: -0.108.
Next, RRIRERPPRLPRPRPRPHDEPRP: 0.00178; RRIRSRPPRLPRPRPRPGLKPRP: 0.14.
In the case of RRIRRRPPRLPRPRPRPDYIPRP, the “shrunken log2 fold change” value was -0.339.
Regarding RRIRVRPPRLPRPRPRPMYFPRP, the “shrunken log2 fold change” value is -0.569.
With RRIRMRPPRLPRPRPRPDCCPRP, the “shrunken log2 fold change” value came out at 2.61.
Next, RRIRFRPPRLPRPRPRPEDKPRP: -0.0503.
Regarding RRIRLRPPRLPRPRPRPKFKPRP, the “shrunken log2 fold change” value is -0.147.
Next, RRIRPRPPRLPRPRPRPKVGPRP: 0.172.
Next, RRIRFRPPRLPRPRPRPMAVPRP: -0.0113; RRIRPRPPRLPRPRPRPDCYPRP: -0.0771; RRIRRRPPRLPRPRPRPIVCPRP: 0.539.
Next, RRIRQRPPRLPRPRPRPYDEPRP: -0.00145.
With RRIRKRPPRLPRPRPRPTNYPRP, the “shrunken log2 fold change” value is -0.114.
Next, RRIRHRPPRLPRPRPRPPVCPRP: -0.0372.
To RRIRFRPPRLPRPRPRPYIQPRP belongs -0.841; to RRIRDRPPRLPRPRPRPAVQPRP, -0.00697.
Next, RRIRFRPPRLPRPRPRPDTSPRP: -0.985; RRIRWRPPRLPRPRPRPLYIPRP: -0.872; RRIRSRPPRLPRPRPRPWMGPRP: -0.238.
In the case of RRIRKRPPRLPRPRPRPTGFPRP, the “shrunken log2 fold change” value amounted to 0.0653.
Next, RRIRWRPPRLPRPRPRPDKAPRP: -0.00149; RRIRDRPPRLPRPRPRPQCNPRP: -0.0196.
Next, RRIRVRPPRLPRPRPRPSEPPRP: -0.11.
To RRIRGRPPRLPRPRPRPKEDPRP belongs 0.796; to RRIRVRPPRLPRPRPRPRPCPRP, 0.322; to RRIRSRPPRLPRPRPRPVYLPRP, -0.519.
For the sequence RRIRGRPPRLPRPRPRPKTVPRP, the “shrunken log2 fold change” value was 0.662.
Next, RRIRMRPPRLPRPRPRPRDVPRP: 0.372; RRIRYRPPRLPRPRPRPLRTPRP: -0.151; RRIRERPPRLPRPRPRPCFRPRP: -0.511.
To RRIRSRPPRLPRPRPRPAQKPRP belongs 0.33.
To RRIRRRPPRLPRPRPRPEVHPRP belongs 0.648.
Turning to RRIRLRPPRLPRPRPRPQLQPRP, the “shrunken log2 fold change” value turned out to be 0.037.
Next, RRIRNRPPRLPRPRPRPPFMPRP: -0.0578; RRIRHRPPRLPRPRPRPILQPRP: -0.152; RRIRPRPPRLPRPRPRPECFPRP: 0.122.
Next, RRIRGRPPRLPRPRPRPGYRPRP: 0.189; RRIRQRPPRLPRPRPRPVFEPRP: 0.0624.
Next, RRIRTRPPRLPRPRPRPMDNPRP: -0.458; RRIRWRPPRLPRPRPRPRNEPRP: 1.32; RRIRYRPPRLPRPRPRPLLLPRP: -0.586.
On to RRIRQRPPRLPRPRPRPTHYPRP, for which the “shrunken log2 fold change” value came to 0.975.
Take RRIRMRPPRLPRPRPRPDAMPRP: the “shrunken log2 fold change” value is 2.44.
RRIRRRPPRLPRPRPRPFSHPRP: the “shrunken log2 fold change” value is -0.0121.
Next, RRIRSRPPRLPRPRPRPVAHPRP: -0.0951.
To RRIRIRPPRLPRPRPRPSQRPRP belongs -0.466; to RRIRERPPRLPRPRPRPYIMPRP, -0.542; to RRIRKRPPRLPRPRPRPPVKPRP, 0.181.
To RRIRWRPPRLPRPRPRPYWWPRP belongs -0.0939.
For the sequence RRIRLRPPRLPRPRPRPASGPRP, the “shrunken log2 fold change” value worked out at 0.373.
With RRIRNRPPRLPRPRPRPKGHPRP, the “shrunken log2 fold change” value is -0.104.
